Here are results for two molecules from patent publication US20120208238A1.

The target of assay [1] is soluble human FcγRIIa^R131-GST (human) (UniProt P12318). Briefly: flow cytometry of E. coli spheroplasts displaying the full length IgG, 20 nM FcγRIIa-GST-Alexa488 in the presence of 100 nM unlabelled FcγRIIb-GST. (In general: A flow cytometer gives signals particle by particle.)
For assay [2] the target is unchanged. Briefly: SPR (BIAcore 3000), antibody on CM5 chip, soluble dimeric receptor-GST injected, bivalent analyte model. In general terms: In SPR one partner is held on a chip, and binding of the other changes the refractive index at the surface.
The target in assay [3] is soluble human FcγRIIb-GST (human) (UniProt P31994). Described as above.
Sequence of soluble human FcγRIIb-GST (human) (P31994 43-217): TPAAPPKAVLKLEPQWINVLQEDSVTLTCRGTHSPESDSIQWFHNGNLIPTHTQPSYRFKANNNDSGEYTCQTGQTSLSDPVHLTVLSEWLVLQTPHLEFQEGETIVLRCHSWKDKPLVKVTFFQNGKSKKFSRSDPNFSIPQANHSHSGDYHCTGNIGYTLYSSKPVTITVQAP
In assay [4] the target is soluble human FcγRIIa^R131-GST (human) (UniProt P12318). Briefly: SPR; ratio of the Kd for FcγRIIb-GST over that for FcγRIIa-GST.

Sequence of soluble human FcγRIIa^R131-GST (human) (P12318 34-217 H167R): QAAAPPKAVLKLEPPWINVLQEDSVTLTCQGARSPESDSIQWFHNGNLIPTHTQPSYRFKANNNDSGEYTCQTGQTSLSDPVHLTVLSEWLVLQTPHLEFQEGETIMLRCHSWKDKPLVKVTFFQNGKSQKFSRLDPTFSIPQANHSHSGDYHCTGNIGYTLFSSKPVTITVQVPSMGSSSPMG

B1: aglycosylated Fc1001 trastuzumab (antibody, part only; not given: Fab (trastuzumab), IgG1, not shown: another chain or arm of the molecule)
Fc: DKTHTCPPCPAPELLGGPSVFLFPPKPKDTLMISRTPEVTCVVVDVSPEDPEVKFNWYVDGVEVHNAKTKPREKQYNGAYRVVSVLTVLHQDWLNGKEYKCKVSNKALPAPIEKTISKAKGQPREPQVYTLPPSRDELTKSQVSLTCLVKGFYPSDIAVEWVSNGQPENNYKTTPPVLDSDGSFFLYSKLTVDKSRWQQGNVFSCSVLHEALHNHYTQKSLSLSPGK
modifications: aglycosylated (T299A)
A word on the koff: it is the rate constant with which the complex falls apart. Read a high koff as fast dissociation. What is called kon is the rate constant with which the complex forms. A lower kon goes with slower complex formation. B1: in assay [1], the FACS mean value turned out to be 409 and the M (mean fluorescence intensity) turned out to be 413. Moreover, in assay [2], the Kd was 102 nM, the koff was 0.00352 s⁻¹ and the kon was determined as 34600 M⁻¹ s⁻¹. Also, in assay [3], the Kd worked out at 975 nM, the koff was 0.0194 s⁻¹ and the kon was 19900 M⁻¹ s⁻¹. Also, the KD2b/KD2a in assay [4] amounted to 9.6.

B2: aglycosylated Fc1003 trastuzumab (antibody, part only; not given: Fab (trastuzumab), IgG1, not shown: another chain or arm of the molecule)
Fc: DKTHTCPPCPAPELLGGPSVFLFPPKPKDTLMISRTPEVTCVVVDVSHEDPEVKFNWYVDGVEVHNAKTKPREEQYNGAYRVVSVLTVLHQDWLNGKEYKCKVSNKALPAPIEKTISKAKGQPREPQVYTLPPSRDELTKNQVSLTCLVKGFYPSDIAVEWVSNGQPENNYETTPPMLDSDGSFFLYSKLTVDKSRWQQGNVFSCSVLHEALHNHYTQKSLSLSPGK
modifications: aglycosylated (T299A)
On to B2, for which, in assay [1], the FACS mean value was 277. In assay [2], this molecule came in with a Kd of 389 nM, a koff of 0.0079 s⁻¹ and a kon of 20300 M⁻¹ s⁻¹. Also, in assay [3], the Kd amounted to 1380 nM, the off-rate (koff) came out at 0.00866 s⁻¹ and the kon turned out to be 6260 M⁻¹ s⁻¹. Also, in assay [4], the KD2b/KD2a is 3.56.
